Measurements reported in paper PMC7455559.

Target: connexin-50 (native, sheep lens) (sheep) (UniProt P55917)
Experiment: cryo-EM structure; native Cx46/50 intercellular channels from sheep lens in a pair of MSP1E1/DMPC nanodiscs; 20 mM HEPES pH 7.4, 150 mM NaCl; single-particle reconstruction with D6 symmetry, 1.90 Å (2.3 Å without symmetry); the two isoforms could not be told apart by image classification

subunits in the intercellular channel (Cx46 and Cx50 together): 12
Substance: connexin-46 (native, sheep lens) (from UniProt Q9TU17 1-413) (natural protein)
